This note sets out measurements from paper PMC4771821, “Structural and spectroscopic characterisation of a heme peroxidase from sorghum” (Journal of Biological Inorganic Chemistry, 2015).

Substrate in this data set: COc1ccccc1O
Kind of data set: purified protein. The data set is classed as biochemical, Sorghum bicolor. As to conditions: heme; Ca2+ raises activity.

B1: SK 5912 sorghum peroxidase (cationic class III peroxidase) (Sorghum bicolor) (protein)
chain: ARQPPLAPGLSFDFYKRSCPKAESIVRSFVQDAVRRDVGLAAGLLRLHFHDCFVQGCDASVLLDGSATGPGEQQAPPNLTLRPTAFKAINDIHDRLHKECGGTVVSCSDVLALAARDSVVVSGGPSYKVPLGRRDSASFATQQDVLSGLPPPTAAVPALLAVLSKINLDATDLVALSGGHTIGLGHCTSFEDRLFPRPDPTLNATFAGQLRRTCPAKGTDRRTPLDVRTPNAFDNKYYVNLVNREGLFTSDQDLFSNARTRALVDKFARSQRDFFDQFAFSVVKMGQIKVLTGTQGQIRTNCSARNAAGTTMLPWSVSVVEEAADESLGVF
notes: native enzyme isolated from grain
As for B1, the Michaelis constant (Km) amounted to 1600 ± 400 µM.
